Test results published in US20250388663A1 (INSTITUT NATIONAL DE LA SANT ET DE LA RECHERCHE M DICALE, published 2025).

Key:
mouse serum albumin [1] = target: T1, mouse serum albumin (mouse, UniProt P07724 25-608); assay: SPR (openSPR), control channel blocked with the non-relevant sdAb and ethanolamine, albumin perfused; settings: scale: % of binding to OptiAlb-12-coated channels
T1 construct: also called MSA; murine serum albumin

[2] = target: human serum albumin (human) (UniProt P02768); assay: as above; settings: scale: % of binding to OptiAlb-12-coated channels
mouse serum albumin [3] = target: T1, mouse serum albumin; assay: ELISA, MSA coated at 2 ug/ml, nanobody titrated, anti-cMyc-HRP detection
Procedure: After washing wells with PBS/0.1% Tween-20, wells were blocked by incubating with PBS/1% bovine serum albumin (BSA) for 1 h at 37° C. […] After three washes with PBS/0.1% Tween-20, bound proteins were probed using polyclonal peroxidase-labelled anti-cMyc antibodies (1:5,000 dilution), and detected via hydrolysis of 3,3′,5,5′-tetramethylbenzidine.

T1 sequence (P07724 25-608 limits assumed): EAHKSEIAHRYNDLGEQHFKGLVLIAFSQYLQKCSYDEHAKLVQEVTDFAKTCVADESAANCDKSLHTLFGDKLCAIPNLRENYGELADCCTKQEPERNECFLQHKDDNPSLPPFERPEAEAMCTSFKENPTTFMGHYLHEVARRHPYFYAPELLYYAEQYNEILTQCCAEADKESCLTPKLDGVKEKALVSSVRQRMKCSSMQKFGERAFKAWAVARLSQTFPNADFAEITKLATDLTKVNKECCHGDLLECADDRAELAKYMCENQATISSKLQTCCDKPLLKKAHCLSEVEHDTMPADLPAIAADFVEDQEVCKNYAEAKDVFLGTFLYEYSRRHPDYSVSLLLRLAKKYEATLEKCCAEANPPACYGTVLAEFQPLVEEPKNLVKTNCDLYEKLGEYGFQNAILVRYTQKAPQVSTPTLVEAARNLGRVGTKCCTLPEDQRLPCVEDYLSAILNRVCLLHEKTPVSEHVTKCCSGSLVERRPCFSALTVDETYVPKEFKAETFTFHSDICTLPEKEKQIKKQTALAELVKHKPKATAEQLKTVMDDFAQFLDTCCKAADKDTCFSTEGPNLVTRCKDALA

## non-relevant single-domain antibody (VHH)
Mouse serum albumin [1]
  binding to the control channel as percent of binding to OptiAlb-12-coated channels: < 3
[2]
  binding to the control channel as percent of binding to OptiAlb-12-coated channels: < 3

B1: OptiAlb-11 (VHH)
VHH: EVQLVESGGGLVQPGNSLRLSCAASGFTFSSFGMSWVRQAPGKGPEWVSSISGSGHDTLYADSVKGRFTISRDNAKTTLYLQMNSLRPEDTAVYYCTIGGSLTRSSQGTLVTVSS
notes: not shown: C-terminal histidine- and cMyc-tag from the pHEN6 plasmid
Mouse serum albumin [3]
  binding result: binds
